Results from the supplement of paper PMC7877785.
± gives the uncertainty stated by the source.

Test: self-splicing fitness, log relative to wild type (ln ratio); higher = more splicing; Tetrahymena group I intron in knt gene, E. coli kanamycin selection, DiMSum; sequences stand for … in CUCUCU…GGAGGGAAAAGUUAUCAGGCAUGCACCUGGUAGCUAGUCUUUAAACCAAUAGAUUGCAUCGGUUUAAAAGGCAAGACCGUCAAAUUGCGGGAAAGGGGUCAACAGCCGUUCAGUACCAAGUCUCAGGGGAAACUUUGAGAUGGCCUUGCAAAGGGUAUGGUAAUAAGCUGACGGACAUGGUCCUAACCACGCAGCCAAGUCCUAAGUCAACAGAUCUUCUGUUGAUAUGGAUGCAGUUCACAGACUAAAUGUCGGUCGGGGAAGAUGUAUUCUUCUCAUAAGAUAUAGUCGGACCUCUCCUUAAUGGGAGCUAGCGGAUGAAGUGAUGCAACACUGGAGCCGCUGGGAACUAAUUUGUAUGCGAAAGUAUAUUGAUUAGUUUUGGAGUACUCGUGGUCG
Outline: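 A randomised library covering all eight P1ex-region intron nucleotides was built with the intron in the knt kanamycin-resistance gene on pET-22b(+) and held in E. coli BL21(DE3). Cells were grown overnight at 37°C or 30°C on LB agar, with or without 25 μg/mL kanamycin, plus 100 μg/mL carbenicillin, 50 μM IPTG and 0.2% rhamnose, and pooled colonies were amplicon-sequenced on an Illumina HiSeq 2500. DiMSum fitness is the error-weighted combination of wild-type-normalised replicate fold changes, kanamycin versus none.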

Sequence	self-splicing fitness (ln) (30 °C)	self-splicing fitness (ln) (37 °C)
CCCUAGCAAUAUUACGGCGA	-2.43 ± 0.13	-2.19 ± 0.17
CCCUAGCAAUAUUACGGCGC	-3.55 ± 0.21	-3.28 ± 0.24
CCCUAGCAAUAUUACGGGAU	-3.82 ± 0.21	-3.12 ± 0.26
CCCUAGCAAUAUUACGGUAA	-2.69 ± 0.21	-3.02 ± 0.32
CCCUAGCAAUAUUACGGUCU	-3.61 ± 0.21	-1.72 ± 0.17
CCCUAGCAAUAUUACGUACA	-2.75 ± 0.19	-2.87 ± 0.22
CCCUAGCAAUAUUACGUGUC	-3.29 ± 0.13	-2.97 ± 0.19
CCCUAGCAAUAUUACGUUGU	-3.84 ± 0.16	-3.27 ± 0.16
CCGAAGCAAUAUUACGAACA	–	-2.58 ± 0.41
CCGAAGCAAUAUUACGAACG	-0.139 ± 0.077	0.554 ± 0.1
CCGAAGCAAUAUUACGAAUC	-4.12 ± 0.32	-3.04 ± 0.48
CCGAAGCAAUAUUACGAGAU	-3.31 ± 0.17	-2.43 ± 0.21
CCGAAGCAAUAUUACGCCUG	-1.04 ± 0.094	-1.17 ± 0.11
CCGAAGCAAUAUUACGCGAA	–	-2.24 ± 0.2
CCGAAGCAAUAUUACGCUCG	-1.57 ± 0.18	-1.53 ± 0.21
CCGAAGCAAUAUUACGGCCC	-3.55 ± 0.3	-1.71 ± 0.38
CCGAAGCAAUAUUACGGCGC	-4.16 ± 0.36	-2.63 ± 0.49
CCGAAGCAAUAUUACGGCUU	-3.9 ± 0.29	-3.29 ± 0.32
CCGAAGCAAUAUUACGGGAC	-4.02 ± 0.26	-3.3 ± 0.26
CCGAAGCAAUAUUACGGGGA	-3.16 ± 0.19	-2.96 ± 0.19
CCGAAGCAAUAUUACGGGGU	-4.25 ± 0.22	-2.6 ± 0.21
CCGAAGCAAUAUUACGGGUA	-4.26 ± 0.3	-2.35 ± 0.22
CCGAAGCAAUAUUACGGUAC	–	-1.85 ± 0.25
CCGAAGCAAUAUUACGGUCG	-0.661 ± 0.11	-0.369 ± 0.14
CCGAAGCAAUAUUACGUAAG	-0.257 ± 0.055	0.2 ± 0.073

Sequence	self-splicing fitness (ln) (30 °C)	self-splicing fitness (ln) (37 °C)
CCGAAGCAAUAUUACGUCGA	-2.38 ± 0.17	-1.74 ± 0.12
CCGAAGCAAUAUUACGUUGA	-3.76 ± 0.15	-3.45 ± 0.17
CCGCAGCAAUAUUACGAAGA	-2.83 ± 0.26	-2.57 ± 0.24
CCGCAGCAAUAUUACGACGG	-2.83 ± 0.11	-2.64 ± 0.19
CCGCAGCAAUAUUACGACUA	-3.8 ± 0.34	-3.46 ± 0.29
CCGCAGCAAUAUUACGACUC	-3.06 ± 0.23	-2.02 ± 0.26
CCGCAGCAAUAUUACGAUCA	-2.72 ± 0.22	-1.85 ± 0.27
CCGCAGCAAUAUUACGAUUC	-3.56 ± 0.19	-3.03 ± 0.21
CCGCAGCAAUAUUACGCACC	-3.46 ± 0.23	-2.05 ± 0.24
CCGCAGCAAUAUUACGCCGG	-3.15 ± 0.38	-3 ± 0.43
CCGCAGCAAUAUUACGCGGU	-3.18 ± 0.16	-2.5 ± 0.22
CCGCAGCAAUAUUACGCUAA	-3.22 ± 0.22	-2.55 ± 0.23
CCGCAGCAAUAUUACGGACG	-2.13 ± 0.1	-0.204 ± 0.11
CCGCAGCAAUAUUACGGAUU	-3.8 ± 0.14	-2.75 ± 0.16
CCGCAGCAAUAUUACGGCCC	-3.3 ± 0.48	–
CCGCAGCAAUAUUACGGCCU	-3.67 ± 0.42	-2.88 ± 0.24
CCGCAGCAAUAUUACGGCUC	-4.29 ± 0.21	-1.34 ± 0.12
CCGCAGCAAUAUUACGGUGG	-3.11 ± 0.12	-3.48 ± 0.2
CCGCAGCAAUAUUACGUAAA	-4.2 ± 0.25	-2.62 ± 0.2
CCGCAGCAAUAUUACGUAAG	0.385 ± 0.056	-0.112 ± 0.062
CCGCAGCAAUAUUACGUCUA	-1.79 ± 0.32	-3 ± 0.3
CCGCAGCAAUAUUACGUGAU	-2.62 ± 0.15	-2.31 ± 0.2
CCGCAGCAAUAUUACGUGCC	-3.67 ± 0.24	-3.75 ± 0.3
CCGCAGCAAUAUUACGUGUG	-3.24 ± 0.11	-1.79 ± 0.094
CCGCAGCAAUAUUACGUUAG	-1.11 ± 0.064	-0.553 ± 0.076

Sequence	self-splicing fitness (ln) (30 °C)	self-splicing fitness (ln) (37 °C)
CCGCAGCAAUAUUACGUUUA	-3.22 ± 0.18	-2.35 ± 0.14
CCGGAGCAAUAUUACGAAAA	–	-2.99 ± 0.48
CCGGAGCAAUAUUACGAAUA	–	-2.16 ± 0.4
CCGGAGCAAUAUUACGAAUU	–	-3.26 ± 0.3
CCGGAGCAAUAUUACGACGC	-3.23 ± 0.22	-2.22 ± 0.32
CCGGAGCAAUAUUACGACUA	-2.18 ± 0.45	-1.88 ± 0.27
CCGGAGCAAUAUUACGACUU	-2.23 ± 0.24	-1.86 ± 0.48
CCGGAGCAAUAUUACGAGCC	-3.09 ± 0.31	-2.1 ± 0.42
CCGGAGCAAUAUUACGAGCU	-2.94 ± 0.35	-1.84 ± 0.49
CCGGAGCAAUAUUACGAGUG	-1.61 ± 0.076	-0.14 ± 0.084
CCGGAGCAAUAUUACGAUGG	-3.6 ± 0.48	-3 ± 0.43
CCGGAGCAAUAUUACGAUUG	-0.529 ± 0.094	0.132 ± 0.14
CCGGAGCAAUAUUACGCGCC	-1.89 ± 0.32	–
CCGGAGCAAUAUUACGCUCA	-3.12 ± 0.3	-2.71 ± 0.41
CCGGAGCAAUAUUACGCUUG	-2.67 ± 0.24	-2.22 ± 0.27
CCGGAGCAAUAUUACGGAAA	-1.87 ± 0.18	-2.41 ± 0.3
CCGGAGCAAUAUUACGGAAC	-3.29 ± 0.47	-1.67 ± 0.36
CCGGAGCAAUAUUACGGAAG	-2.73 ± 0.11	-2.21 ± 0.14
CCGGAGCAAUAUUACGGAUU	–	-1.82 ± 0.2
CCGGAGCAAUAUUACGGGCU	-3.52 ± 0.35	-3.75 ± 0.42
CCGGAGCAAUAUUACGGUAA	-2.12 ± 0.25	-3.21 ± 0.4
CCGGAGCAAUAUUACGUACU	-4.13 ± 0.44	-3.36 ± 0.42
CCGGAGCAAUAUUACGUAGA	-3.6 ± 0.19	-2.66 ± 0.2
CCGGAGCAAUAUUACGUCGC	-2.63 ± 0.32	-2.43 ± 0.41
CCGGAGCAAUAUUACGUGAA	–	-1.86 ± 0.31

Sequence	self-splicing fitness (ln) (30 °C)	self-splicing fitness (ln) (37 °C)
CCGGAGCAAUAUUACGUGCU	-2.99 ± 0.17	-2.85 ± 0.24
CCGGAGCAAUAUUACGUGGU	-3.01 ± 0.2	0.658 ± 0.18
CCGGAGCAAUAUUACGUGUG	-1.68 ± 0.039	-1.05 ± 0.061
CCGUAGCAAUAUUACGAAGG	-3.22 ± 0.39	–
CCGUAGCAAUAUUACGAAGU	-3.05 ± 0.21	-1.46 ± 0.31
CCGUAGCAAUAUUACGACUU	-2.98 ± 0.37	-2.67 ± 0.41
CCGUAGCAAUAUUACGAGCC	–	-1.01 ± 0.42
CCGUAGCAAUAUUACGAGCU	-3.28 ± 0.22	-3.35 ± 0.24
CCGUAGCAAUAUUACGAUUG	-0.486 ± 0.064	-0.0224 ± 0.082
CCGUAGCAAUAUUACGCAAU	-3.31 ± 0.24	-2.05 ± 0.22
CCGUAGCAAUAUUACGCGCA	-3.09 ± 0.3	-1.69 ± 0.4
CCGUAGCAAUAUUACGCUGC	-2.07 ± 0.47	-1.49 ± 0.45
CCGUAGCAAUAUUACGCUUU	-3.52 ± 0.43	-2.23 ± 0.49
CCGUAGCAAUAUUACGGCGG	-4.06 ± 0.3	-2.97 ± 0.26
CCGUAGCAAUAUUACGGGCC	-3.55 ± 0.25	-2.83 ± 0.32
CCGUAGCAAUAUUACGGUCU	-3.01 ± 0.21	-2.2 ± 0.18
CCGUAGCAAUAUUACGGUUC	-2.21 ± 0.2	-2.04 ± 0.26
CCGUAGCAAUAUUACGGUUG	-3.89 ± 0.24	-1.73 ± 0.19
CCGUAGCAAUAUUACGUAAC	-4.68 ± 0.46	-0.709 ± 0.24
CCGUAGCAAUAUUACGUACG	-2.13 ± 0.18	-1.83 ± 0.21
CCGUAGCAAUAUUACGUAUA	-2.74 ± 0.18	-2.72 ± 0.27
CCGUAGCAAUAUUACGUCAG	-1.26 ± 0.077	-1.55 ± 0.089
CCGUAGCAAUAUUACGUCUA	-2.84 ± 0.16	-1.92 ± 0.18
CCGUAGCAAUAUUACGUGAC	-2.36 ± 0.15	–
